Experiment: soluble on expression in E. coli; label from the status in PepcDB or PDB records

Row | Sequence | soluble on expression in E. coli
1 | MMTSNSYWQRLKVAFQYVMPQIYLTQIAGWFAKQKWGKITHFVIKAFAKKYNIDMSIAQKEQFSDYASFNEFFIRPLKENARPINQNPTALCLPADGRISECGHIDDNLLLQAKGHFFSLEDLLAEDKELVETFKNGEFVTTYLSPRDYHRVHMPCDATLRKMIYVPGDLFSVNPFLAQHVPNLFARNERVICVFDTEFGTMVQILVGATITASIGTTWAGVINPPRHNEVKTWTYEGESAVKLLKGQEMGWFQLGSTVINLFQANQVRLADHLSVNEPVRMGEILAYKKLEHHHHHH | not soluble
2 | MSVIKIEKALKLDKVIFVDVRTEGEYEEDHILNAINMPLFKNNEHNEVGTIYKMQGKHEAIQKGFDYVSYKLKDIYLQAAELALNYDNIVIYCARGGMRSGSIVNLLSSLGVNVYQLEGGYKAYRNFVLEYLRHVMDTKNFVSVHGLTGTGKTDLLHLLDENGIDVLDLEGIAKNSGSTFGFITFDKKPPSQKNFETKLFESIFFSKENYIFVESESKRVGSVTVPNEIFEAMTREGHHILLECDIENRVDRLCRDYIYDKDEGNILILKECINKFRKRLGNKVVDDYIDLLESGEYKELVKRYLLEYYDPLYMHSVEKYKYSKIINFNDTQKALEDVIDLYESILEGESEC | not soluble
3 | MADKRIRSDSSAAAVQAMKNAAVDTIDPPSHAGLEKKAEPFWHDNIRSKALDSWTPADLLAAVELANNQLYITVLRKDLRKEERIRGEERDEGLIKDLRKQIVELQRTILAQRRDLQIHSHATNGESRDQKKRNQNDRDARNTKNEHQDQDDNLIAFPKHG | not soluble
4 | MRILHTSDWHLGKNLEGYSRMDEQEEFLEDFIKIVEENNIDMVVIAGDIYDTYNPPARAEKMFYSTLKKISQNGERVTLVIAGNHDNPERLVAAGPLARDHGIIMVGTPKSVVPTGEYGKHKVLSSKEGFIEIEVNGERASIITLPYPSEKRLNEVLYEEMDSEEEKVKSYGDRIKQLFDRLSENFRDDTINMVVSHLFAMGSEEGGSERNVQLGGSFIVNGDCFPKNAQYVALGHVHKPQLVPGTHKIARYSGSPIQYNKKEINFKKKCFLVNIEAGKEPIVDEIEFKVYKPIEVWKCTGVEEAIKKCEENKDRDCWVYLEIVTDKYIGEEEMKAMKSLKKDILEILPKVSVDNEIIDMASFKERPFEEIFKEFYKKERKVEPDNEVVDLLLSIINGGEAEDETHKS | not soluble
5 | MEPDIEPWDRFRDWLHCICVVTFDLELGQALEVIYPGDAILSNTEKINICYLAFPDSNSSNARDTNFHFRIRRAISDVRDCQKSFVDKSPTSLPFDTHYLYGFVHFRQCKDPTIHRGYYQKSIVLMSVLPLFSLFYSVTARIAEHFFESGEAAIEAACHHIDTWQQPHAGRTIELPLLGTLISCRLPAACDLPYEFRLDGHVELSDDDSQRLVRPDFTTSIVQHVHHLPLLWELVLLGEPLLIVAPTPSITSALVQSIVGLLSPLRIVNDFRPYFTIHDSEFREYSSKSRSPPRVILGVTNPFFIKALDHWPHILKVAEQGAEIGGDDMKKPKKTWSSSRTLDTPAGLYTQYKPFLSKDKSLAKKLLRSGNSLEVQHNILQRHFLELTHSFMIPMERYLSSLMPLKKEMSPFKGIPSTRPFSMDDFLATLETNGGPSLTCGTKGDWQGLYRRFITCSNFGGWLSMRSRDVNAQLKTHYVEALCSADFCSQTLATKHNVEIVDLVLRIRERIIECPPDTEIRRNLVRQVVKILSNVDDDLKQLLMSNCSLREILA | not soluble
6 | MVARDTTAPQVKIVNPVTGNVSGSNVPISVNASDDSGASGITYALYIDGVLKATGKGSTLGYNWNIRNVAAGAHTVQVVAKDAAGNSASSSVSVTVVKLEHHHHHH | not soluble
7 | MIGIVAAFEKVKIPEMGKSFGTGWLPPLPSLKDYTEESAQIPEMAEKLGIPTSRKETKTLELPVSIDFRNWCSPIEDQMDLGSCTAHAGVGVVEYFERRAFGKHIDGSRFFVYKTTRNLMGVKGDTGAWLRNTMGALALCGVPPEKYFPYTSRKTPGPDGEPTFDDEPSSFVYSLADNFEALNYFCHDPQGMNLPPEDVILSVKKYLAAGIPSMFGFYGFPSFKDTDVKGGIPFPGPDERSIWGHAVVAVGYDDNMKIRNTLSNKETTGAFLIRNSWGTAWGDKGYGWLPYEYALNKLEHHHHHH | not soluble
8 | MGHHHHHHSHMAFFRRSLMTENAVLQLRAERIARATRPFLARGNRVRRCQRCLLPEKLCLCSTITPAQAKSRFCLLMFDTEPMKPSNTGRLIADILPDTVAFQWSRTEPSQDLLELVQNPDYQPMVVFPASYADEQREVIFTPPAGKPPLFIMLDGTWPEARKMFRKSPYLDNLPVISVDLSRLSAYRLREAQAEGQYCTAEVAIALLDMAGDTGAAAGLGEHFTRFKTRYLAGKTQHLGSITAEQLESV | soluble
9 | MLLRILIADDEPLARERLRVLLQAQMQHLEVVAEAENGEQVLHDCQRLNPDLVLMDIAMPGIDGLETARYLRYLPACPAVVFCTAYGDHALSAFDVEAIDYLMKPVRAERLHAALKRVQTFVAGRLREPQTSCDETPRTHLCVRIRGGLRLIPLDQVRYLQADEKYVVICHEQGEDLIEESLKSLEKEFSDRFVRIHRNCLIARAELTELRRCSDGQVQAVLRNVVTPLAVSRRCVPLLCDQLRLSAVLTGRWLEHHHHHH | not soluble
10 | MGSDKIHHHHHHMSLTITKLQKKIADQAVLNNITFSLSLGQVVGLVGPNGIGKTTIFRTVTHQYRADGGTIELDEQDLTDHPEQRENLFYLDNQHLFFRKYRLDKIAGDYQLLYATFDQARFMALIEKFGLQGSQRFQSLSKGYQALVMVALALASGAPYVFLDEPFDGLDLLIRERIVNLVVDAVADGKRTFLIASHNLVELDGLSDRVLFVKAGRISQDLTLEDVRQQAIKLQLVFKTKAIPDVIR | not soluble
11 | MEDQLTIFIISDSLGETAKAIAKACLSQFPGHDDWHFQRFSYINSQERLEQVFEEASQKTVFMMFSLVDVALASYAQKRCESEHYAYVDLLTNVIQGISRISGIDPLGEPGILRRLDNDYFKRVESIEFAVKYDDGRDPRGILQADLVIIGISRTSKTPLSMFLADKNIKVINIPLVPEVPVPKELRMIDSRRIIGLTNSVDHLNQVRKVRLKSLGLSSTANYASLERILEETRYAEEVMKNLGCPIINVSDKAIEETATIILEILKTNGQVAKNLLEHHHHHH | not soluble
12 | MSDIFNSPQNKASILTALMKSTTGDVEDVLIPKRFRPAKDPLDSPQAAAQFLKDNKYRILRPRAIPTMVELETDAALPRLRQMVEDGKLKDTVSVPEGTTAFYPKYYPFHKPDHDEVGTFGAPDITLLKQLTFFLLENDFPTGPETLRQVREAIATLQYGSGSYSGQLNRLLAMKGVATGRNPNKTPKTVGYTNEQLAKLLEQTLPINTPKHEDPDLRWAPSWLINYTGDLSTDKSYLPHVTIKSSAGLPYIGKTKGDTTAEALVLADSFIRDLGRAATSADPEAGVKKTITDFWYLSCGLLFPKGERYTQVDWDKKTRNIWSAPYPTHLLLSMVSTPVMNESKLNITNTQTPSLYGFSPFHGGMDRIMTIIRDSLDNDEDLVMIYADNIYILQDNTWYSIDLEKGEANCTPQHMQAMMYYLLTRGWTNEDGSPRYNPTWATFAMNVAPSMVVDSSCLLMNLQLKTYGQGSGNAFTFLNNHLMSTIVVAEWVKAGKPNPMTKEFMDLEEKTGINFKIERELKNLRETIVEAVETAPQDGYLADGSDLPPIRPGKAVELDLLGWSAIYSRQMEMFVPVLENERLIASAAYPKGLENKALARKPGAEIAYQIVRYEAIRLVGGWNNPLLETAAKHMSLDKRKRLEVKGIDVTGFLDDWNNMSEFGGDLEGITLSEPLTNQTLVDINTPLDSFDPKARPQTPRSPKKTLDEVTTAITSGTYKDPKSAVWRLLDQRTKLRVSTLRDQALALKPASSSVDNWAEATEELAQQQQLLMKANNLLKSSLTETREALETIQSDKIIAGKSNPEKNPGTAANPVVGYGEFSEKIPLTPTQKKNAKRREKQRRNQ | not soluble
13 | MLDFAQLPPEVNSALMYAGPGSGPMLAAAAAWEALAAELQTTASTYDALITGLADGPWQGSSAASMVAAATPQVAWLRSTAGQAEQAGSQAVAAASAYEAAFFATVPPPEIAANRALLMALLATNFLGQNTAAIAATEAQYAEMWAQDAAAMYGYAGASAAATQLSPFNPAAQTINPAGLASQAASVGQAVSGAANAQALTDIPKALFGLSGIFTNEPPWLTDLGKALGLTGHTWSSDGSGLIVGGVLGDFVQGVTGSAELDASVAMDTFGKWVSPARLMVTQFKDYFGLAHDLPKWASEGAKAAGEAAKALPAAVPAIPSAGLSGVAGAVGQAASVGGLKVPAVWTATTPAASPAVLAASNGLGAAAAAEGSTHAFGGMPLMGSGAGRAFNNFAAPRYGFKPTVIAQPPAGG | not soluble

Reference: the DeepSol protein solubility set
